Changes are numbered by the printed parent chain. Names and notes keep the numbering of the source.
B1: Ic_S2_P3E.1_K3.1_C3.1_H3.1_A3.1_[T5C]_[A6T]_F3.1_[T7G]_[A8G]_T3.1 (ssRNA)
RNA: UUUGAUUAAUAUGAUAUCGUUCUUUCUUGUACUGGUUCUUUCUCGAUAUCAUAUUAAUCUUU
B2: Ic_S2_P3E.1_K3.1_C3.1_H3.1_A3.1_[T5C]_[A6T]_F3.1_[T7G]_[A8C]_T3.1 (ssRNA)
RNA: B1 RNA with G35C
B3: Ic_S2_P3E.1_K3.1_C3.1_H3.1_A3.1_[T5C]_[A6T]_F3.1_[T7C]_[A8C]_T3.1 (ssRNA)
RNA: B1 RNA with G34C, G35C
B4: Ic_S2_P3E.1_K3.1_C3.1_H3.1_A3.1_[T5C]_[A6T]_F3.1_[T7C]_[A8T]_T3.1 (ssRNA)
RNA: B1 RNA with G34C, G35U
B5: Ic_S2_P3E.1_K3.1_C3.1_H3.1_A3.1_[T5C]_[A6T]_F3.1_[T7A]_[A8G]_T3.1 (ssRNA)
RNA: B1 RNA with G34A
B6: Ic_S2_P3E.1_K3.1_C3.1_H3.1_A3.1_[T5C]_[A6T]_F3.1_[T7A]_[A8C]_T3.1 (ssRNA)
RNA: B1 RNA with G34A, G35C
B7: Ic_S2_P3E.1_K3.1_C3.1_H3.1_A3.1_[T5C]_[A6T]_F3.1_[T7A]_[A8T]_T3.1 (ssRNA)
RNA: B1 RNA with G34A, G35U
B8: Ic_S2_P3E.1_K3.1_C3.1_H3.1_A3.1_[T5C]_[A6T]_F3.1_[T7A]_T3.1 (ssRNA)
RNA: B1 RNA with G34A, G35A
B9: Ic_S2_P3E.1_K3.1_C3.1_H3.1_A3.1_[T5C]_[A6T]_F3.1_[A8G]_T3.1 (ssRNA)
RNA: B1 RNA with G34U
B10: Ic_S2_P3E.1_K3.1_C3.1_H3.1_A3.1_[T5C]_[A6T]_F3.1_[A8C]_T3.1 (ssRNA)
RNA: B1 RNA with G34U, G35C
B11: Ic_S2_P3E.1_K3.1_C3.1_H3.1_A3.1_[T5C]_[A6T]_F3.1_[A8T]_T3.1 (ssRNA)
RNA: B1 RNA with G34U, G35U
B12: Ic_S2_P3E.1_K3.1_C3.1_H3.1_A3.1_[T5C]_F3.1_[T7G]_[A8C]_T3.1 (ssRNA)
RNA: B1 RNA with U33A, G35C
B13: Ic_S2_P3E.1_K3.1_C3.1_H3.1_A3.1_[T5C]_F3.1_[T7G]_[A8T]_T3.1 (ssRNA)
RNA: B1 RNA with U33A, G35U
B14: Ic_S2_P3E.1_K3.1_C3.1_H3.1_A3.1_[T5C]_F3.1_[T7C]_[A8G]_T3.1 (ssRNA)
RNA: B1 RNA with U33A, G34C
B15: Ic_S2_P3E.1_K3.1_C3.1_H3.1_A3.1_[T5C]_F3.1_[T7C]_[A8C]_T3.1 (ssRNA)
RNA: B1 RNA with U33A, G34C, G35C
B16: Ic_S2_P3E.1_K3.1_C3.1_H3.1_A3.1_[T5C]_F3.1_[T7C]_[A8T]_T3.1 (ssRNA)
RNA: B1 RNA with U33A, G34C, G35U
B17: Ic_S2_P3E.1_K3.1_C3.1_H3.1_A3.1_[T5C]_F3.1_[T7A]_[A8G]_T3.1 (ssRNA)
RNA: B1 RNA with U33A, G34A
B18: Ic_S2_P3E.1_K3.1_C3.1_H3.1_A3.1_[T5C]_F3.1_[T7A]_[A8C]_T3.1 (ssRNA)
RNA: B1 RNA with U33A, G34A, G35C
B19: Ic_S2_P3E.1_K3.1_C3.1_H3.1_A3.1_[T5A]_[A6C]_F3.1_[T7G]_[A8G]_T3.1 (ssRNA)
RNA: B1 RNA with C32A, U33C
B20: Ic_S2_P3E.1_K3.1_C3.1_H3.1_A3.1_[T5A]_[A6C]_F3.1_[T7C]_[A8G]_T3.1 (ssRNA)
RNA: B1 RNA with C32A, U33C, G34C
B21: Ic_S2_P3E.1_K3.1_C3.1_H3.1_A3.1_[T5A]_[A6C]_F3.1_[T7C]_[A8T]_T3.1 (ssRNA)
RNA: B1 RNA with C32A, U33C, G34C, G35U
B22: Ic_S2_P3E.1_K3.1_C3.1_H3.1_A3.1_[T5A]_[A6C]_F3.1_[T7A]_[A8G]_T3.1 (ssRNA)
RNA: B1 RNA with C32A, U33C, G34A
B23: Ic_S2_P3E.1_K3.1_C3.1_H3.1_A3.1_[T5A]_[A6C]_F3.1_[T7A]_[A8T]_T3.1 (ssRNA)
RNA: B1 RNA with C32A, U33C, G34A, G35U
B24: Ic_S2_P3E.1_K3.1_C3.1_H3.1_A3.1_[T5A]_[A6C]_F3.1_[A8G]_T3.1 (ssRNA)
RNA: B1 RNA with C32A, U33C, G34U
B25: Ic_S2_P3E.1_K3.1_C3.1_H3.1_A3.1_[T5A]_[A6T]_F3.1_[T7G]_[A8T]_T3.1 (ssRNA)
RNA: B1 RNA with C32A, G35U
B26: Ic_S2_P3E.1_K3.1_C3.1_H3.1_A3.1_[T5A]_[A6T]_F3.1_[T7C]_[A8T]_T3.1 (ssRNA)
RNA: B1 RNA with C32A, G34C, G35U
B27: Ic_S2_P3E.1_K3.1_C3.1_H3.1_A3.1_[T5A]_[A6T]_F3.1_[T7A]_[A8G]_T3.1 (ssRNA)
RNA: B1 RNA with C32A, G34A

Target: T1, PUF4 RNA-binding domain (Saccharomyces cerevisiae, UniProt P25339 537-888)
T1 sequence: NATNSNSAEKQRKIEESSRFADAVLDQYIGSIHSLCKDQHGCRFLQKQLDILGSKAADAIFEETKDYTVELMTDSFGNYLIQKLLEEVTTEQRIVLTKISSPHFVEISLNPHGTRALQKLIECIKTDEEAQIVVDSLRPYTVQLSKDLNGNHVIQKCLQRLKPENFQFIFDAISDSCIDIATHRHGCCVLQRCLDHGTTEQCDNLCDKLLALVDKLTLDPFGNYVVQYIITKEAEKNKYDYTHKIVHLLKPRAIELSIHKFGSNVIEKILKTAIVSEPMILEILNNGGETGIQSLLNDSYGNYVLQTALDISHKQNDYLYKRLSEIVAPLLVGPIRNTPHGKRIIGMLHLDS
Assay: Mg; RNA-MaP; 20 mM Na-HEPES pH 7.4, 30 mM KOAc, 0.75 mM MgCl2, 0.1% Tween-20, 5% glycerol, 0.1 mg/mL BSA, 2 mM DTT; 25 C; 0.0125-409.6 nM protein
Conditions: tags: N-His6-TEV cleaved; C-SNAP kept, Cy3B-labelled; label: tethered on chip by stalled RNA polymerase

| Binder | Kd |
| --- | --- |
| B1 | 1390 nM |
| B2 | 381 nM |
| B3 | 126 nM |
| B4 | 10.7 nM |
| B5 | 692 nM |
| B6 | 47 nM |
| B7 | 3.82 nM |
| B8 | 33.9 nM |
| UCUCUUUUUAUGUAUCUCUU (ssRNA) [Ib_S1_P3E.1_K3.1_C3.1_H3.1_[G2T]_A3.1_[A6G]_F3.1_T3.1] | 354 nM |
| B9 | 107 nM |
| B10 | 36.4 nM |
| B11 | 9.88 nM |
| B12 | 35.4 nM |
| B13 | 13.1 nM |
| B14 | 31.5 nM |
| B15 | 17.3 nM |
| B16 | 2.64 nM |
| B17 | 1630 nM |
| B18 | 23.8 nM |
| UCUCUUUUUAUCUAUCUCUU (ssRNA) [Ib_S1_P3E.1_K3.1_C3.1_H3.1_[G2T]_A3.1_[A6C]_F3.1_T3.1] | > 2300 nM |
| B19 | 984 nM |
| B20 | 626 nM |
| B21 | 23.5 nM |
| B22 | 947 nM |
| B23 | 8.69 nM |
| B24 | 101 nM |
| B25 | 174 nM |
| B26 | 22.5 nM |
| B27 | 1530 nM |

From paper PMC9352680, “A comprehensive thermodynamic model for RNA binding by the Saccharomyces cerevisiae Pumilio protein PUF4”
